Source: article PMC2765514 (Biochemistry, 2009)
Values belong to the binder of their own block, whether it stands above or below them.

Columns and labels:
cross-linking = biological target: the molecule itself; assay: cross-linking
[1] = biological target: T1, soluble PDZK1 ΔDTEM purified from bacteria (human, UniProt Q5T2W1 1-515); assay: pull-down
T1 sequence (looked up): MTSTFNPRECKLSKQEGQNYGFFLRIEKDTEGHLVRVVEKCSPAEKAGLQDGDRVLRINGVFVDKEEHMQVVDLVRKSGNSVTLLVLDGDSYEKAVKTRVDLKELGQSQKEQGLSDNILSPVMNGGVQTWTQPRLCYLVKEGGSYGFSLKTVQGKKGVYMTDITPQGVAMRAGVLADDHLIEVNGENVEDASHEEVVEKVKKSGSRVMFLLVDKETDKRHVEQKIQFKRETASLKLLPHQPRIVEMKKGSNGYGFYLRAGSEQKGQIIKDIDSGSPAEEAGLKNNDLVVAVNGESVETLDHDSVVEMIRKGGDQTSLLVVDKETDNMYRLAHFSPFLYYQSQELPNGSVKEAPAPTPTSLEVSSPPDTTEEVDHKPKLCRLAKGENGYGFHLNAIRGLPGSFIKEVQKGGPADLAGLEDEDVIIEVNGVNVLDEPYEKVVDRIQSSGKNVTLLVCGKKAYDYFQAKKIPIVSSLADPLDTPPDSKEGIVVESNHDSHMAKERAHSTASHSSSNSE

[2] = biological target: T2, soluble PDZK1 purified from bacteria (human, UniProt Q5T2W1 1-519); assay: pull-down
T2 sequence (looked up): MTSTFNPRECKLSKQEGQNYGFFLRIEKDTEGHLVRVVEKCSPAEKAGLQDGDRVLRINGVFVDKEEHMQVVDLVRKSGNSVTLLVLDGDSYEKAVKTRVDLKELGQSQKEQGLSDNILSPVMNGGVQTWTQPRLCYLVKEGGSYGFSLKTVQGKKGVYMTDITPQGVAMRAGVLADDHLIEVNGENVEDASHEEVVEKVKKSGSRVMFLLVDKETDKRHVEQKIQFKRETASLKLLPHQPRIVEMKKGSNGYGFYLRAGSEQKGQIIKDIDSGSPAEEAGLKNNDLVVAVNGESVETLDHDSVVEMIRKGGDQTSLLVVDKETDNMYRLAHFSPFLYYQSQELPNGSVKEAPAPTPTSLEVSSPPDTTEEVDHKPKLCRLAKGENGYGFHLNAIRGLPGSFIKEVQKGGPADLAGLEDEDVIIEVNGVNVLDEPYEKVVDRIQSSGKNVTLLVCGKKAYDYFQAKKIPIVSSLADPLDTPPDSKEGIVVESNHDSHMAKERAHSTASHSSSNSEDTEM

B1: PDZK1 PDZs 3 and 4 to the end of the protein (amino acids 227–515), soluble (domain or fragment, human, UniProt Q5T2W1 227-515, looked up)
chain: FKRETASLKLLPHQPRIVEMKKGSNGYGFYLRAGSEQKGQIIKDIDSGSPAEEAGLKNNDLVVAVNGESVETLDHDSVVEMIRKGGDQTSLLVVDKETDNMYRLAHFSPFLYYQSQELPNGSVKEAPAPTPTSLEVSSPPDTTEEVDHKPKLCRLAKGENGYGFHLNAIRGLPGSFIKEVQKGGPADLAGLEDEDVIIEVNGVNVLDEPYEKVVDRIQSSGKNVTLLVCGKKAYDYFQAKKIPIVSSLADPLDTPPDSKEGIVVESNHDSHMAKERAHSTASHSSSNSE
- stoichiometry N (cross-linking): 2

- binding result [1]: binds
- binding result [2]: binds
B2: GST-PDZK1-tail (domain or fragment, human, UniProt Q5T2W1 458-519, looked up)
chain: KAYDYFQAKKIPIVSSLADPLDTPPDSKEGIVVESNHDSHMAKERAHSTASHSSSNSEDTEM
